Drawing on US20200199241A1 (Chugai, published 2020), this text covers Kd for 55 molecules.

Substitutions are numbered along the chain they refer to.

The target in this experiment is T1, soluble human FcRn complexed with β2-microglobulin (human, UniProt P61769 21-119, limits assumed).
T1 construct: also called hFcRn
The experiment is described as follows: Biacore SPR, pH 7.0.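 Also: test antibodies captured on a Protein L chip with human FcRn flowed over as analyte, KD obtained as the ratio of dissociation to association rate constants.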 For orientation: SPR reads the build-up and loss of mass on a sensor chip optically.

T1 sequence (chain, as listed by the source limits assumed, chain 1 of 2): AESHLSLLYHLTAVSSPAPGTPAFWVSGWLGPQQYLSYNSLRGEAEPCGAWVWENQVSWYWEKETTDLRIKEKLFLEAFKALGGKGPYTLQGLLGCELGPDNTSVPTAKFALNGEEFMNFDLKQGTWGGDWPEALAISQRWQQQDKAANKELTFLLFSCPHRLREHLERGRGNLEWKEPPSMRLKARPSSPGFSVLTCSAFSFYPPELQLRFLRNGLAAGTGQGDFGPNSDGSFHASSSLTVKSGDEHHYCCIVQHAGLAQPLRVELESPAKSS
T1 sequence (P61769 21-119 limits assumed, chain 2 of 2): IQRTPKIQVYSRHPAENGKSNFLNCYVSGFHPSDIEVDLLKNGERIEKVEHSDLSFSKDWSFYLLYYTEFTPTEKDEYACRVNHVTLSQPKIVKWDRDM

B1: IgG1-F1203 (antibody)
heavy: QVQLQESGPGLVKPSETLSLTCAVSGHSISHDHAWSWVRQPPGEGLEWIGFISYSGITNYNPSLQGRVTISRDNSKNTLYLQMNSLRAEDTAVYYCARSLARTTAMDYWGEGTLVTVSSASTKGPSVFPLAPSSKSTSGGTAALGCLVKDYFPEPVTVSWNSGALTSGVHTFPAVLQSSGLYSLSSVVTVPSSSLGTQTYICNVNHKPSNTKVDKKVEPKSCDKTHTCPPCPAPELLGGPSVFLFPPKPKDTLYISRQPEVTCVVVDVSHEDPEVKFNWYVDGVEVHNAKTKPREEQYNSTYRVVSVLTVLHQDWLNGKEYKCKVSNKALPAPIEKTISKAKGQPREPQVYTLPPSRDELTKNQVSLTCLVKGFYPSDIAVEWESNGQPENNYKTTPPVLDSDGSFFLYSKLTVDKSRWQQGNVFSCSVMHEALHYHVTRKELSLSP
light: not shown
notes: EU numbering; copies: 2 + 2
By Kd is commonly meant the free concentration of one partner at which half of the binding sites on the other are occupied at equilibrium, for simple one-to-one binding. B1 returned a dissociation constant Kd of 152 nM.

B2: IgG1-F1249 (antibody)
heavy: B1 heavy with L237R, S241K
light: not shown
notes: EU numbering; copies: 2 + 2
In turn, B2 had a Kd of 206 nM.

B3: IgG1-F1264 (antibody)
heavy: B1 heavy with L237R, S241K, Q258A
light: not shown
notes: EU numbering; copies: 2 + 2
On to B3, for which the affinity, expressed as Kd, was 127 nM.

B4: IgG1-F1244 (antibody)
heavy: B1 heavy with L237R, S241K, Q258E
light: not shown
notes: EU numbering; copies: 2 + 2
In turn, B4 yielded a Kd of 102 nM. This Kd and that of the molecule before are within 1.5-fold of each other.

B5: IgG1-F1207 (antibody)
heavy: B1 heavy with Y254M, Q258T, I334E, M430L, Y436S, V438Y, R440Q, E442S
light: not shown
notes: EU numbering; copies: 2 + 2
B5 yielded a Kd of 1110 nM.

B6: IgG1-F1204 (antibody)
heavy: B1 heavy with S256T
light: not shown
notes: EU numbering; copies: 2 + 2
The molecule B6 registered a Kd of 118 nM.

B7: IgG1-F1253 (antibody)
heavy: B1 heavy with L237R, S241K, Q258T, T309A
light: not shown
notes: EU numbering; copies: 2 + 2
For the molecule B7, the Kd was found to be 112 nM.

B8: IgG1-F1279 (antibody)
heavy: B1 heavy with L237R, S241K, Q258G, R440K, E442D
light: not shown
notes: EU numbering; copies: 2 + 2
In turn, B8 had a Kd of 123 nM. The Kd values of the last two molecules are within 1.5-fold of each other.

B9: IgG1-F1245 (antibody)
heavy: B1 heavy with L237R, S241K, S256T, Q258E
light: not shown
notes: EU numbering; copies: 2 + 2
As for B9, the Kd is 82 nM.

B10: IgG1-F1289 (antibody)
heavy: B1 heavy with L237R, S241K, Q258E, H435D
light: not shown
notes: EU numbering; copies: 2 + 2
B10: the Kd came to 333 nM.

B11: IgG1-F1261 (antibody)
heavy: B1 heavy with L237R, S241K, Q258T, E442D
light: not shown
notes: EU numbering; copies: 2 + 2
B11: the Kd came to 135 nM.

B12: IgG1-F1282 (antibody)
heavy: B1 heavy with L237R, S241K, Q258N, R440K, E442D
light: not shown
notes: EU numbering; copies: 2 + 2
For the molecule B12, the Kd was 76.9 nM.

B13: IgG1-F1287 (antibody)
heavy: B1 heavy with L237R, S241K, S256T, Q258T, H435D, R440K, E442D
light: not shown
notes: EU numbering; copies: 2 + 2
B13 showed a Kd of 150 nM.

B14: IgG1-F1216 (antibody)
heavy: B1 heavy with L253S, Q258T, R440Q, E442S
light: not shown
notes: EU numbering; copies: 2 + 2
The molecule B14 had a Kd of 1160 nM.

B15: IgG1-F1281 (antibody)
heavy: B1 heavy with L237R, S241K, Q258G, H435D, R440K, E442D
light: not shown
notes: EU numbering; copies: 2 + 2
On to B15, for which binding was put at a Kd of 174 nM.

B16: IgG1-F1217 (antibody)
heavy: B1 heavy with L253T, Q258T, R440Q, E442S
light: not shown
notes: EU numbering; copies: 2 + 2
As to B16, the Kd was determined as 1140 nM.

B17: IgG1-F1256 (antibody)
heavy: B1 heavy with L237R, S241K, Q258T, Q313H
light: not shown
notes: EU numbering; copies: 2 + 2
Molecule B17 came in with a Kd of 156 nM. This Kd lies about 7.3-fold lower than the previous one.

B18: IgG1-F1255 (antibody)
heavy: B1 heavy with L237R, S241K, Q258T, Q313A
light: not shown
notes: EU numbering; copies: 2 + 2
B18 showed a Kd of 111 nM.

B19: IgG1-F1250 (antibody)
heavy: B1 heavy with L237R, S241K, S256T
light: not shown
notes: EU numbering; copies: 2 + 2
Turning to B19, binding was put at a Kd of 166 nM.

B20: IgG1-F1206 (antibody)
heavy: B1 heavy with T252V, S256T
light: not shown
notes: EU numbering; copies: 2 + 2
B20 registered a Kd of 169 nM.

B21: IgG1-F1284 (antibody)
heavy: B1 heavy with L237R, S241K, Q258N, H435D, R440K, E442D
light: not shown
notes: EU numbering; copies: 2 + 2
B21 gave a Kd of 112 nM.

B22: IgG1-F1262 (antibody)
heavy: B1 heavy with L237R, S241K, Q258T, R440K
light: not shown
notes: EU numbering; copies: 2 + 2
B22 gave a Kd of 126 nM.

B23: IgG1-F1229 (antibody)
heavy: B1 heavy with I255V, Q258T, R440Q, E442S
light: not shown
notes: EU numbering; copies: 2 + 2
For the molecule B23, the Kd amounted to 2810 nM.

B24: IgG1-F1260 (antibody)
heavy: B1 heavy with L237R, S241K, Q258T, T309Q, Q313H
light: not shown
notes: EU numbering; copies: 2 + 2
Take B24: the Kd stood at 65.3 nM.

B25: IgG1-F1268 (antibody)
heavy: B1 heavy with L237R, S241K, Q258T, H435D
light: not shown
notes: EU numbering; copies: 2 + 2
Regarding B25, the Kd stood at 200 nM.

B26: IgG1-F1283 (antibody)
heavy: B1 heavy with L237R, S241K, Q258N, H435D
light: not shown
notes: EU numbering; copies: 2 + 2
The molecule B26 displayed a Kd of 134 nM.

B27: IgG1-F1205 (antibody)
heavy: B1 heavy with T252V
light: not shown
notes: EU numbering; copies: 2 + 2
For B27, the Kd is 198 nM.

B28: IgG1-F1259 (antibody)
heavy: B1 heavy with L237R, S241K, Q258T, T309Q, Q313A
light: not shown
notes: EU numbering; copies: 2 + 2
B28 returned a Kd of 44.6 nM. Against the preceding molecule, the Kd is about 4.4-fold lower.

B29: IgG1-F1251 (antibody)
heavy: B1 heavy with L237R, S241K, T252V
light: not shown
notes: EU numbering; copies: 2 + 2
On to B29, for which binding was put at a Kd of 277 nM.

B30: IgG1-F1246 (antibody)
heavy: B1 heavy with L237R, S241K, T252V, S256T, Q258T
light: not shown
notes: EU numbering; copies: 2 + 2
For B30, the Kd is 173 nM. This Kd is about 1.6-fold lower than that of the molecule before.

B31: IgG1-F1252 (antibody)
heavy: B1 heavy with L237R, S241K, T252V, S256T
light: not shown
notes: EU numbering; copies: 2 + 2
Consider B31, for which binding was put at a Kd of 233 nM.

B32: IgG1-F1243 (antibody)
heavy: B1 heavy with L237R, S241K, S256T, Q258T
light: not shown
notes: EU numbering; copies: 2 + 2
B32 came in with a Kd of 125 nM.

B33: IgG1-F1277 (antibody)
heavy: B1 heavy with L237R, S241K, Q258A, H435D
light: not shown
notes: EU numbering; copies: 2 + 2
The molecule B33 displayed a Kd of 169 nM. The Kd values of the last two molecules are within 1.5-fold of each other.

B34: IgG1-F1267 (antibody)
heavy: B1 heavy with L237R, S241K, S256A, Q258T
light: not shown
notes: EU numbering; copies: 2 + 2
The molecule B34 registered a Kd of 150 nM.

B35: IgG1-F1280 (antibody)
heavy: B1 heavy with L237R, S241K, Q258G, H435D
light: not shown
notes: EU numbering; copies: 2 + 2
B35 displayed a Kd of 209 nM.

B36: IgG1-F1208 (antibody)
heavy: B1 heavy with L253A, Q258T, R440Q, E442S
light: not shown
notes: EU numbering; copies: 2 + 2
Molecule B36 yielded a Kd of 571 nM.

B37: IgG1-F1271 (antibody)
heavy: B1 heavy with L237R, S241K, S256A, Q258T, H435D
light: not shown
notes: EU numbering; copies: 2 + 2
Turning to B37, the Kd is 205 nM.

B38: IgG1-F1218 (antibody)
heavy: B1 heavy with L253V, Q258T, R440Q, E442S
light: not shown
notes: EU numbering; copies: 2 + 2
For the molecule B38, the Kd came out at 251 nM.

B39: IgG1-F1231 (antibody)
heavy: B1 heavy with Q258T, R440K
light: not shown
notes: EU numbering; copies: 2 + 2
Take B39: the Kd came to 97.3 nM.

B40: IgG1-F1258 (antibody)
heavy: B1 heavy with L237R, S241K, Q258T, T309A, Q313H
light: not shown
notes: EU numbering; copies: 2 + 2
In turn, B40 displayed a Kd of 105 nM.

B41: IgG1-F1248 (antibody)
heavy: B1 heavy with L237R, S241K, T252V, S256T, Q258E
light: not shown
notes: EU numbering; copies: 2 + 2
B41 had a Kd of 120 nM.

B42: IgG1-F1285 (antibody)
heavy: B1 heavy with L237R, S241K, S256T, Q258T, R440K, E442D
light: not shown
notes: EU numbering; copies: 2 + 2
As to B42, the affinity, expressed as Kd, was 93.6 nM.

B43: IgG1-F1265 (antibody)
heavy: B1 heavy with L237R, S241K, Q258G
light: not shown
notes: EU numbering; copies: 2 + 2
B43 showed a Kd of 157 nM.

B44: IgG1-F1263 (antibody)
heavy: B1 heavy with L237R, S241K, Q258T, R440K, E442D
light: not shown
notes: EU numbering; copies: 2 + 2
Turning to B44, the affinity, expressed as Kd, was 124 nM.

B45: IgG1-F1275 (antibody)
heavy: B1 heavy with L237R, S241K, H435D, R440K, E442D
light: not shown
notes: EU numbering; copies: 2 + 2
As for B45, the Kd came to 209 nM.

B46: IgG1-F1257 (antibody)
heavy: B1 heavy with L237R, S241K, Q258T, T309A, Q313A
light: not shown
notes: EU numbering; copies: 2 + 2
For B46, the Kd was 78.1 nM.

B47: IgG1-F1278 (antibody)
heavy: B1 heavy with L237R, S241K, Q258A, H435D, R440K, E442D
light: not shown
notes: EU numbering; copies: 2 + 2
B47: the Kd amounted to 140 nM. Compared with the last molecule, the Kd is about 1.8-fold higher.

B48: IgG1-F1273 (antibody)
heavy: B1 heavy with L237R, S241K, R440K, E442D
light: not shown
notes: EU numbering; copies: 2 + 2
As for B48, the Kd came out at 153 nM.

B49: IgG1-F1286 (antibody)
heavy: B1 heavy with L237R, S241K, S256T, Q258T, H435D
light: not shown
notes: EU numbering; copies: 2 + 2
As for B49, the Kd is 157 nM.

B50: IgG1-F1276 (antibody)
heavy: B1 heavy with L237R, S241K, Q258A, R440K, E442D
light: not shown
notes: EU numbering; copies: 2 + 2
Regarding B50, binding was characterised by a dissociation constant (Kd) of 102 nM.

B51: IgG1-F1266 (antibody)
heavy: B1 heavy with L237R, S241K, Q258N
light: not shown
notes: EU numbering; copies: 2 + 2
For B51, binding was characterised by a dissociation constant (Kd) of 99.9 nM.

B52: IgG1-F1232 (antibody)
heavy: B1 heavy with Q258T, R440K, E442D
light: not shown
notes: EU numbering; copies: 2 + 2
In turn, B52 returned a Kd of 97.9 nM.

B53: IgG1-F1274 (antibody)
heavy: B1 heavy with L237R, S241K, H435D
light: not shown
notes: EU numbering; copies: 2 + 2
Molecule B53 returned a Kd of 248 nM.

B54: IgG1-F1230 (antibody)
heavy: B1 heavy with Q258T, E442D
light: not shown
notes: EU numbering; copies: 2 + 2
In turn, B54 returned a Kd of 112 nM. Against the preceding molecule, the Kd is about 2.2-fold lower.

B55: IgG1-F1247 (antibody)
heavy: B1 heavy with L237R, S241K, T252V, Q258E
light: not shown
notes: EU numbering; copies: 2 + 2
Molecule B55 yielded a Kd of 145 nM.
